Substrate: O=C(O)C(=O)O
Assay: purified protein
Conditions: pH 4.0 (authors' preferred pH; also measured at pH 3 and 5), 100 mM buffer, air-saturated, 25 °C, 0.025 μM HvOXO, 0.125 μM PaDa-I as coupling enzyme

B1: HvOXO (Hordeum vulgare) (protein)
chain: SDPDPLQDFCVADLDGKAVSVNGHTCKPMSEAGDDFLFSSKLTKAGNTSTPNGSAVTELDVAEWPGTNTLGVSMNRVDFAPGGTNPPHIHPRATEIGMVMKGELLVGILGSLDSGNKLYSRVVRAGETFVIPRGLMHFQFNVGKTEAYMVVSFNSQNPGIVFVPLTLFGSDPPIPTPVLTKALRVEAGVVELLKSKFAGGS
Km: 730 ± 90 µM | kcat: 1.52 s⁻¹ | kcat/Km: 2080 M⁻¹ s⁻¹
